Data as given in patent US20130108548A1 (VECT HORUS, published 2013).
Values belong to the molecule of their own block, whether it stands above or below them. Positions of bridges follow the written chain, without caps; N, C: chain ends. Non-standard residues stand in square brackets, D forms with d. No end group written: not given here.

Legend:
[1] = target: rat LDLR on rat brain capillary endothelial cells (RBCEC) (rat) (UniProt P35952); test: cell-based or functional assay
[2] = target: mouse LDLR in tissues of wild-type mice (mouse, UniProt P35951 22-862); test: cell-based or functional assay
[3] = target: T1, human low-density lipoprotein receptor fused with RFP, on CHO-hLDLR-RFP cells (human, UniProt P01130 22-860); test: competition on CHO-hLDLR-RFP cells: 10 uM test peptide against 10 uM SEQ ID NO: 17/STag, STag read by FRET
T1 construct: whole, on cells; also called human LDLR; not shown: red fluorescent protein (RFP) fused at the C-term (intracellular end)

Sequence of mouse LDLR in tissues of wild-type mice (P35951 22-862): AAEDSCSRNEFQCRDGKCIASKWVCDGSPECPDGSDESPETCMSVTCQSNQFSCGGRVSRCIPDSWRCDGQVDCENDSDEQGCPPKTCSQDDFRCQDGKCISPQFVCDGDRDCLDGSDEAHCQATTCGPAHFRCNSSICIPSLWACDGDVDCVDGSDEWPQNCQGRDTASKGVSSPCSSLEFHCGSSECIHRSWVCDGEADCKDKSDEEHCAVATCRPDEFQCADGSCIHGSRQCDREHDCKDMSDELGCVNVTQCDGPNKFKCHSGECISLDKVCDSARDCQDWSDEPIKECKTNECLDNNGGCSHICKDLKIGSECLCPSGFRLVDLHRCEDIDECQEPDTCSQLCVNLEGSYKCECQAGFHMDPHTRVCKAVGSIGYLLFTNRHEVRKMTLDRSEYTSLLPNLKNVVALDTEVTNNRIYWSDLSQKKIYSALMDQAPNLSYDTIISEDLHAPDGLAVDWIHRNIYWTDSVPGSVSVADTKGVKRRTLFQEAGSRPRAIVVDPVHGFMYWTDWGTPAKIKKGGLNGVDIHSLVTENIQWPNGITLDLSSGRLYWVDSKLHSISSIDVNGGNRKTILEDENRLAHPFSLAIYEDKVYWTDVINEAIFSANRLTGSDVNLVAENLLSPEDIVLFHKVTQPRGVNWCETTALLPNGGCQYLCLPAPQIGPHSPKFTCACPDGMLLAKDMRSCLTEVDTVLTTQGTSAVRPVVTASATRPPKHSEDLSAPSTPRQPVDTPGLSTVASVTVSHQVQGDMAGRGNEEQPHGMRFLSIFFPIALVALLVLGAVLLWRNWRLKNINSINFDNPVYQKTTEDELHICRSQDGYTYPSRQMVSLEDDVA
Sequence of rat LDLR on rat brain capillary endothelial cells (RBCEC) (rat) (P35952 22-879): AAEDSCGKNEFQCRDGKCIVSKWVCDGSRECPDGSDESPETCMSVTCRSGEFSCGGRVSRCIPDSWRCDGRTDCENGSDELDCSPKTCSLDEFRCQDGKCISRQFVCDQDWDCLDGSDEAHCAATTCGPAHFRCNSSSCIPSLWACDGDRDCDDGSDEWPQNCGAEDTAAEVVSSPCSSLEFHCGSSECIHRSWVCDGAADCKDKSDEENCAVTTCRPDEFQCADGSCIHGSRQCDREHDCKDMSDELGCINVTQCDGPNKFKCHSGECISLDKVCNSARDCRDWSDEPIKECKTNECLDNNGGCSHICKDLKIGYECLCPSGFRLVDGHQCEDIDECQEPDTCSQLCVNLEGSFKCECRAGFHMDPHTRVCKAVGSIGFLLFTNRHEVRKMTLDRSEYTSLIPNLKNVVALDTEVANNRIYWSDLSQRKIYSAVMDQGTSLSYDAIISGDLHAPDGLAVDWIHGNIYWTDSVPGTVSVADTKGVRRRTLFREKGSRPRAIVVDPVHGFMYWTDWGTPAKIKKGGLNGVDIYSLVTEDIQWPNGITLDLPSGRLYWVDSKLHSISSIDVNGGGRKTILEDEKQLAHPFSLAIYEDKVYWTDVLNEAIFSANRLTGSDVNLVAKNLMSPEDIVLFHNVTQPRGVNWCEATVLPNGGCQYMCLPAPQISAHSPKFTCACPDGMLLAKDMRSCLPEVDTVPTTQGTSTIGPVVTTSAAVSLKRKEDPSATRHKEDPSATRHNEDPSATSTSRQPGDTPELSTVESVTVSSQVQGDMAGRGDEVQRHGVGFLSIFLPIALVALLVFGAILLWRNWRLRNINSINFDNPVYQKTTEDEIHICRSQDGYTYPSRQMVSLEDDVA

saturation of the transport into the lower compartment of the in-vitro BBB model (WT) (µg per insert) [1]: 4
Molecule: LDL made fluorescent by adsorption of DiI (ligand)

peptide concentration in the adrenal glands, LDLR-KO mice compared to wild-type mice, 10 min after intravenous injection [2]: ~2 fold decrease
peptide concentration in the intestine, LDLR-KO mice compared to wild-type mice, 10 min after intravenous injection [2]: ~6 fold decrease
peptide concentration in the liver, LDLR-KO mice compared to wild-type mice, 10 min after intravenous injection [2]: ~5 fold decrease
B1: peptide SEQ ID NO: 5 radiolabelled using tritium (peptide)
peptide: XMXRLRGC
modifications: (D)-pen at 1; Thz at 3; tritiated, by the method of Example IX a tritiated propionyl group on the N-term amine

Displacement of the control peptide [3]: 54%
B2: peptide SEQ ID NO: 10 (peptide)
peptide: [dC]MPRLR[dA]C
modifications: disulfide 1-8 (inferred)
notes: also called (D)-cys-Met-Pro-Arg-Leu-Arg-(D)-ala-Cys
